Laboratory results as given in patent publication US20250093368A1 (BEIJING INSTITUTE OF HEART LUNG AND BLOOD VESSEL DISEASES, published 2025).
Residue numbers refer to the chain shown, from its start. Numbers in names are those of the source.

B1: 3D8 (antibody, V domains shown)
VH: QSVEESGGRLVTPGTPLTLTCTVSGIDLSTNPMGWVRQAPGKGLEWIGIIFADTGEIYYATWAKGRFTISETSSTTVDLKITSPTAEDTATYFCVRGSPSSANIWGPGTLVTVSS
VL: AAVLTQTPSPVSAAVGGTVTISCQSSQSVYNNNWLGWYQQKPGQPPKLLIYRASTLASGVPSRFKGSGSGTQFTFTISDLECDDAATYYCAGTYRRNSDNGFGGGTEVVVKG
notes: Rabbit monoclonal IgG against S100A8 (rabbit E15229); Biotin-labeled when used as detecting antibody
B2: 5H10 (antibody, V domains shown)
VH: B1 VH with K64R
VL: B1 VL with P61S, F75L, D79G
notes: Rabbit monoclonal IgG against S100A8 (rabbit E15229); Tested as B cell supernatant, LEM supernatant and purified recombinant antibody; biotin-labeled when used as detecting antibody; also called anti-S100A8 monoclonal antibody 5H10
B3: 2C2 (antibody, V domains shown)
VH: QSVEESGGRLVTPGGSLTLTCTVSGFSLSSYFMIWVRQAPGKGLEYIGIHSDTGSTDYASWAKGRFTISKTSTTVDLKMTSLTASDTATYFCARDGGNDAYYYFNIWGPGTLVTVSS
VL: AYDMTQTPASVEVAVGGTVTINCQASQSISTALAWYQQKPGQPPKPLIYEASKLASGVPSRFKGSGSGTEFILTISDLECADAATYYCQQGASARNIASNVFGGGTEVVVKG
notes: as for B1
B4: S100A9 - 6 x His tag (expression product from plasmid 2) (other)
chain: MTCKMSQLERNIETIINTFHQYSVKLGHPDTLNQGEFKELVRKDLQNFLKKENKNEKVIEHIMEDLDTNADKQLSFEEFIMLMARLTWASHEKMHEGDEGPGHHHKPGLGEGTPHHHHHH
notes: pET-28a, BamHI/HindIII
B5: S100A9-1 (E9A) - 6 x His tag (expression product from mutant plasmid 2) (other)
chain: B4 chain with E9A
notes: pET-28a, BamHI/HindIII; also called mutant S100A9
B6: T7-tag - S100A9-1 - 6 x His tag (S100A9-1 chain co-expressed from plasmid 4 and plasmid 5) (other)
chain: B4 chain with E9A
notes: Single chain of the co-expression constructs, written as a molecule of its own for the dimer formation results; also called mutant S100A9; not shown: T7-tag
B7: 7C4 (antibody, V domains shown)
VH: QSVEESGGRLVTPGTPLTLTCTVSGIDLSSGWMNWVRQAPGGGLEWIGTINSGGSPYYARWAKGRFTLSTTSTTVDLKITSPTTEDTATYFCGSRDFWGPGTLVTVSS
VL: AQVLTQTASPVSAAVGGTVTINCQASQSVYNNNYLAWYQQKPGQPPKRLIYAASNLASGVSSRFKGSGSGTQFTLTISDLQCDDAATYYCSGGYDCDSADCSVFGGGTEVVVKG
notes: Rabbit monoclonal IgG against S100A9 (rabbit E16675); also called 7C4-HRP; 7C4 (biotin-labeled)
B8: 8A11 (antibody, V domains shown)
VH: B7 VH with G42K, T49V, G53Y, S55R, P56T, L68I, T70I
VL: B7 VL with G17S, N31K, A52S, N55T, L80V, S91G
notes: Rabbit monoclonal IgG against S100A9 (rabbit E16675); Biotin-labeled when used as detecting antibody; also called 8A11 (biotin-labeled)
B9: Flag tag - S100A8 (expression product from plasmid 1; also the S100A8 chain co-expressed from plasmid 5) (other)
chain: DYKDDDDKLTELEKALNSIIDVYHKYSLIKGNFHAVYRDDLKKLLETECPQYIRKKGADVWFKELDINTDGAVNFQEFLILVIKMGVAAHKKSHEESHKE

Legend:
[1] = molecular target: T1, commercial S100A8 protein (ab167749, Recombinant human MRP8 protein) (human, UniProt P05109 1-93); assay: ELISA, B cell supernatant on commercial S100A8 protein ab167749; positive = OD greater than 0.7
T1 construct: Bought; also called commercial S100A8 antigen
T1 sequence (looked up): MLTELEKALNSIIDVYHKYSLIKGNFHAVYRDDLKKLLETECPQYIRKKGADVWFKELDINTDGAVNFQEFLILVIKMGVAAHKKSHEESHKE

[2] = molecular target: T2, S100A8 recombinant protein (pET-28a-S100A8 (1-93 aa) expressed protein) (human, UniProt P05109 1-93); assay: ELISA, B cell supernatant on expressed S100A8 antigen; positive = OD greater than 0.7
T2 construct: Immunogen and ELISA screening antigen, expressed from pET-28a; also called S100A8 antigen; expressed S100A8 antigen
T2 sequence: T1 sequence (looked up)

[3] = molecular target: T3, commercial S100A8/S100A9 Heterodimer (R&D) heterodimer protein (UniProt P05109 1-93; P06702 2-114, limits assumed); assay: ELISA, LEM supernatant, heterodimer coated at 1 µg/mL
T3 construct: Bought, purity >95%; also called S100A8/S100A9 heterodimer protein standard; commercial S100A8/S100A9 protein
T3 sequence (looked up) 1: T1 sequence (looked up)
T3 sequence (looked up) 2: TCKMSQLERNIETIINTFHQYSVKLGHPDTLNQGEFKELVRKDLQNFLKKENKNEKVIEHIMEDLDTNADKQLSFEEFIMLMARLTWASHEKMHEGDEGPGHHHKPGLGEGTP
From the text: The ELISA reaction conditions were as follows: [0196]

[4] = molecular target: T4, S100A8 protein in patient sera (human, UniProt P05109 1-93); assay: Dot Blot, B cell supernatant on patient sera
T4 construct: Native serum protein; also called S100A8 signal in patient serum
T4 sequence (looked up): T1 sequence (looked up)

[5] = molecular target: T5, S100A8/S100A9-1 recombinant protein (expression product from plasmid 5) (human, UniProt P05109 2-93; P06702 1-114); assay: sandwich ELISA, 5H10 coated at 0.5 µg/mL, 7C4-HRP detecting
T5 construct: also called S100A8/S100A9-1 heterodimer; S100A8/S100A9-1 (S100A9 mutant) heterodimer; not shown: T7-tag
T5 chain 1: B9 chain
T5 chain 2: B4 chain with E9A
Procedure: (1) Experimental steps: [0270] standard: commercial R&D S100A8/S100A9 heterodimer protein, 2-fold gradient dilution from 40 ng/mL, with a total of 8 concentrations, lower limit of 0.625 ng, and boundary value of 40-0.625; [0271] reaction system: 96-well plate reaction system, laboratory buffer; [0272] coating antibody concentration: 5H10 (anti-S100A8 antibody), 0.5 μg/mL; [0273] detecting antibody concentration: 7C4-HRP (directly labeled), antibody dilution ratio of 1:20000 or 1:10000; [0274] TMB development: dilution ratio being 1:2, and color development time being 15 min.

[6] = molecular target: the molecule itself; assay: SDS-PAGE of His-purified protein, homodimer band at 34 KDa
From the text: (§1) (8) SDS-PAGE gel electrophoresis: the supernatant obtained after lysis and the purified protein were mixed with 6×Loading Buffer according to a volume ratio of 5:1 for sample preparation; and the prepared sample was subjected to SDS-PAGE gel electrophoresis together with bovine serum albumin (BSA, purchased from BioFroxx, Cat. No. 4240GR025) and Marker, wherein plasmid 1 and mutant plasmid 1 were the final samples purified by Flag-Tag, plasmid 2 and mutant plasmid 2 were the final samples purified by His-Tag, and plasmid 3 and plasmid 4 were the final samples purified by His-Tag and Flag-Tag. […] In panel C, the “Supernatant” refers to the supernatant obtained after centrifugation during first lysis, and the “Supernatant 2” refers to the supernatant obtained by performing second lysis treatment on the precipitate obtained after first lysis and centrifugation and then performing centrifugation.

[7] = molecular target: the molecule itself; assay: SDS-PAGE of His-purified protein
From the text: as §1

[8] = molecular target: the molecule itself; assay: SDS-PAGE of protein purified by His-Tag and Flag-Tag
From the text: as §1
Except for the synthesized gene of interest (gene of interest S100A8+S100A9-1 in plasmid 5), the construction and expression and purification method for plasmid 5 was the same as that for plasmids 3 and 4, which was not described in detail herein.

[9] = molecular target: B9; assay: co-expression, purification by His-Tag then Flag-Tag, SDS-PAGE
[10] = molecular target: T6, S100A9 recombinant protein (pET-28a-S100A9 (1-114 aa) expressed protein) (human, UniProt P06702 1-114); assay: ELISA, LEM supernatant, antigen coated at 1 µg/mL
T6 construct: Immunogen and ELISA screening antigen, expressed from pET-28a; also called S100A9 antigen; expressed S100A9 antigen
T6 sequence: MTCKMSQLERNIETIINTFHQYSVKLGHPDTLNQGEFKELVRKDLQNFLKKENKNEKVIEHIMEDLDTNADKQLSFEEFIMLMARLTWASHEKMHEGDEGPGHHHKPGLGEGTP
From the text: (§2) The ELISA reaction conditions were as follows: [0207]

[11] = molecular target: T7, commercial S100A9 protein (ab95909, Recombinant Human S100A9 protein) (human, UniProt P06702 1-114); assay: ELISA, LEM supernatant, antigen coated at 1 µg/mL
T7 construct: Bought; also called commercial A9 protein
T7 sequence (looked up): T6 sequence
From the text: as §2

[12] = molecular target: T8, S100A9 protein in patient sera (human, UniProt P06702 2-114, limits assumed); assay: Dot Blot, B cell supernatant on patient sera
T8 construct: Native serum protein; also called S100A9 signal in patient serum
T8 sequence (looked up): T3 sequence (looked up) 2

[13] = molecular target: the molecule itself; assay: SDS-PAGE of Flag-purified protein, homodimer band at 30 KDa
From the text: as §1

Measured: binding result

B1
binds: [1] | [2] | [3] | [4]

B2
binds: [1] | [2] | [3] | [5] | [4]

B3
binds: [1] | [2] | [3] | [4]

B4
binds: [6]

B5
binds: [7]

B6
binds: [8] | [9]

B7
binds: [10] | [11] | [3] | [5] | [12]

B8
binds: [10] | [11] | [3] | [12]

B9
binds: [13]
